Measured values taken from the supplement of paper PMC9732359.
± gives the uncertainty stated by the source.

test: protein stability index of a GFP-peptide fusion (yeast GPS) (PSI 1-4); higher = more stable; sorted into four equal gates, so the index is relative within each strain; conditions: san1∆
Outline: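 Plasmids isolated from each sorting gate were PCR-amplified and Illumina-sequenced, and barcodes assigned the reads to strains. The gates, four of equal size, were set by GFP/Cherry fluorescence ratio on mid-log cultures in leucine-free medium. These cultures were yeast carrying a pooled library of tiled 17-residue yeast protein peptides fused downstream of GFP on a plasmid that also expresses Cherry. The protein stability index is the sum of every gate's read frequency times its gate number.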

| Sequence | protein stability index |
| --- | --- |
| LYVPHSENRFPGWDFET [RPL5] | 2.21 ± 0.1 |
| MAAALPNPTPSMINSVS [PGD1] | 2.05 ± 0.052 |
| MAATATDKIGRSVPAPG [FAS2] | 3.04 ± 0.073 |
| MAGVKAYELRTKSKEQL [RPL35A] | 2.94 ± 0.067 |
| MAPNTSRKQKIAKTFTV [RPL22A] | 2.61 ± 0.13 |
| MAQTATQQQPGAPGANA [SRP54] | 3.33 ± 0.054 |
| MARRPARCYRYQKNKPY [RPL10] | 2.32 ± 0.092 |
| MARTKQTARKSTGGKAP [HHT1] | 3.04 ± 0.1 |
| MATIASEYSSEASNTPI [PRE7] | 2.83 ± 0.08 |
| MCVSKGNASLKYIALQV [YCG1] | 1.48 ± 0.12 |
| MDETQTRAKIGGLNDPR [RPO21] | 2.3 ± 0.1 |
| MDKKILLNINGSRKVAG [SMX2] | 1.81 ± 0.09 |
| MDMNEIEDKENSESTTQ [RPT5] | 3.16 ± 0.12 |
| MDRDSESEEAETKDIRK [SRB4] | 2.62 ± 0.28 |
| MDSKGKITIGIQRTTES [RGR1] | 3.33 ± 0.083 |
| MEERDGAKFENIVHNFK [AAR2] | 2.41 ± 0.12 |
| MEKDKLKNLLRSNFRVN [SNU114] | 2.46 ± 0.13 |
| METRINILLRERDSYKL [YIL149C/MLP2] | 1.2 ± 0.27 |
| MFNDLNSMDISMFSGLD [MED2] | 3.15 ± 0.037 |
| MFSPLVDSGSNDAMAGG [RPO21] | 3.37 ± 0.26 |
| MGMDLYKTSKAAQDVWN [FAS1] | 3.08 ± 0.13 |
| MIAKEVKTSPDAKKCIA [FAS1] | 2.8 ± 0.28 |
| MIATNVAARGLDIPNVS [PRP28] | 2.2 ± 0.16 |
| MIDLGFEDQVTNILTKV [PRP28] | 2.88 ± 0.22 |
| MIIFLKNYDATDKPFSS [CSI1] | 2.92 ± 0.05 |

| Sequence | protein stability index |
| --- | --- |
| MIYDDAHEISQGVYGAV [BRR2] | 2.83 ± 0.049 |
| MKDRLVEWNDQVEKLGK [RPN9] | 3.36 ± 0.083 |
| MKIQAGQLGLDDNDVPG [YLR018C/POM34] | 2.5 ± 0.21 |
| MKNKAETTTEEDSENPS [ITC1] | 3.03 ± 0.13 |
| MKQPYVFVKKHHELIKV [SSN2] | 1.21 ± 0.08 |
| MLETAGFSMNNPYNIVP [SMC3] | 3.19 ± 0.07 |
| MLGIRSSVKTCFKPMSL [RIP1] | 2.83 ± 0.057 |
| MLGRAGRPRYDTFGEGI [BRR2] | 3.15 ± 0.087 |
| MLKYRRLFIGDQNNKKM [SNF2] | 2.47 ± 0.094 |
| MLMPKQERNKIHQYLFQ [RPS10B] | 2.89 ± 0.14 |
| MLNLIDDVKNILNAKYT [RPN6] | 2.86 ± 0.061 |
| MMQDPQMQQMAKQFGMG [SRP54] | 3.03 ± 0.031 |
| MMTRRVVMAMYNPKMID [RET1] | 2.62 ± 0.29 |
| MMVSYPKIDEDDTWYNL [AAR2] | 3.25 ± 0.048 |
| MNETLNLKVELKEQSEQ [SMC4] | 2.14 ± 0.29 |
| MNGNSTNNEQLQQELAT [NUT2] | 3.1 ± 0.053 |
| MNRRKIAMPKRRMAFKP [YLR335W/NUP2] | 2.91 ± 0.071 |
| MNTTLGSIGSRKYSFNY [YAR002W/NUP60] | 1.87 ± 0.095 |
| MNTVPFTSAPIEVTIGI [AAR2] | 1.47 ± 0.22 |
| MPFWKFFMKNFPFVLKV [SRB8] | 2.03 ± 0.12 |
| MPKKRASNGRNKKGRGH [RPS26A] | 2.82 ± 0.24 |
| MSANGFAADGDALVKRF [PRE7] | 2.9 ± 0.21 |
| MSAVPSVQTFGKKKSAT [RPS16A] | 1.26 ± 0.26 |
| MSDAVTIRTRKVISNPL [RPS24A] | 2.97 ± 0.13 |
| MSDLFTFDWFIKTRTVH [ISW2] | 2.76 ± 0.093 |
